Bounds are passed on as bounds.

As usually defined, the IC50 is the midpoint of a concentration-inhibition curve.

Test [1] addresses HLA-A*02:01. Nature of the test: IEDB peptide-MHC binding, cellular MHC/competitive/fluorescence; ≥ and ≤ were set here for values at or beyond the usual limits of such assays.
The target in test [2] is HLA-A*02:02. Described as above.
Test [3] concerns the target HLA-A*02:06. The description is as above.
The target of test [4] is HLA-A*68:02. Described as above.
Test [5] has as its target HLA-A*02:03. Nature of the test: IEDB peptide-MHC binding, purified MHC/competitive/radioactivity; ≥ and ≤ were set here for values at or beyond the usual limits of such assays.
Test [6] has as its target HLA-A*02:03. Nature of the test: IEDB peptide-MHC binding, cellular MHC/competitive/fluorescence; ≥ and ≤ were set here for values at or beyond the usual limits of such assays.
The target of test [7] is HLA-A*02:01. Nature of the test: IEDB peptide-MHC binding, purified MHC/competitive/radioactivity; ≥ and ≤ were set here for values at or beyond the usual limits of such assays. As to conditions: source organism: Mammarenavirus choriomeningitidis.
Test [8] addresses HLA-A*02:02. Described as above.
Test [9] concerns the target HLA-A*02:06. Described as above.
For test [10], the target named is HLA-A*68:02. Described as above.
Where [11] appears, read: source organism: Vaccinia virus WR.
Setting [12] is: source organism: Mammarenavirus choriomeningitidis.
The mark [13] stands for this setting: source organism: Influenza A virus.

For MISTYPGNT, the IC50 was determined as 22.1 µM in [1] (setting [11]); 5.49 µM in test [2] (setting [11]); 25.7 µM in test [3] (setting [11]); 14.7 µM in [4] (setting [11]); 0.229 µM in test [5] (setting [11]).
As to MSCDDVVFGI, the 50% inhibitory concentration (IC50) came to 12.1 µM in [6] (setting [12]); 1.01 µM in [7]; 1.05 µM in test [8] (setting [12]); 0.25 µM in [9] (setting [12]); 0.054 µM in test [10] (setting [12]).
For the sequence NALLKHRFEII, the concentration for half-maximal inhibition (IC50) in test [1] (setting [13]) turned out to be 22.7 µM; in test [2] (setting [13]), 11.2 µM; in test [3] (setting [13]), 5.36 µM; in [4] (setting [13]) it was 12.4 µM; in [5] (setting [13]), 4.1 µM.
In the case of NAVTTNNLL, the half-inhibitory concentration (IC50) in test [6] (setting [11]) was found to be 24.9 µM; in test [8] (setting [11]), 1.85 µM; in [9] (setting [11]), 0.202 µM; in test [10] (setting [11]), 4 µM.
With NLERETGLSA, the half-inhibitory concentration (IC50) turned out to be 17.5 µM in [1] (setting [11]); 17.6 µM in test [2] (setting [11]); 15 µM in test [3] (setting [11]); 31.3 µM in [4] (setting [11]); 1.66 µM in [5] (setting [11]).
With NTSQRGIL, the IC50 in test [1] (setting [13]) is 6.68 µM; in [2] (setting [13]), 5.1 µM; in [3] (setting [13]) it was not below 70 µM; in [4] (setting [13]), not below 70 µM; in [5] (setting [13]), 2.79 µM.
Take QMYRKFSRCT: the IC50 came out at 27.1 µM in [1] (setting [11]); 25.7 µM in test [2] (setting [11]); 14.7 µM in [3] (setting [11]); 48.2 µM in test [4] (setting [11]); 2.27 µM in [5] (setting [11]).
The like results for QVKDNIISRT were, in that order, 40.9 µM, 17.8 µM, 34.3 µM, 24.2 µM and 0.421 µM.
Turning to RAMAWTVV, the IC50 in test [1] (setting [13]) is 7.6 µM; in test [2] (setting [13]), 8.18 µM; in [3] (setting [13]), 7.78 µM; in test [4] (setting [13]), not below 70 µM; in [5] (setting [13]) it was 2.42 µM.
As for RASAGQISV, the half-inhibitory concentration (IC50) in test [1] (setting [13]) was found to be 19.6 µM; in test [2] (setting [13]), 38.8 µM; in test [3] (setting [13]) it was 11.5 µM; in [4] (setting [13]), 8.55 µM; in test [5] (setting [13]), 4.96 µM.
Regarding RLLKNMKQCT, the IC50 in [1] (setting [11]) is 9.76 µM; in test [2] (setting [11]), 46.8 µM; in [3] (setting [11]), 11.9 µM; in [4] (setting [11]), not below 70 µM; in [5] (setting [11]), 3.14 µM.
The like results for RTRLYDYFT were, in that order, 49.5 µM, 7.1 µM, 48.7 µM, 27.2 µM and 3.05 µM.
SLETVKMGA: the concentration for half-maximal inhibition (IC50) in test [1] (setting [11]) was 26.1 µM; in [2] (setting [11]), 11.2 µM; in [3] (setting [11]), 23.4 µM; in [4] (setting [11]), not below 70 µM; in [5] (setting [11]) it was 0.547 µM.
In the same order, the values of SMTSDSKSI are 34.8 µM, 8.35 µM, 56.1 µM, 8.09 µM and 2.3 µM.
The like results for SMYTRLRQDT were, in that order, 32.9 µM, 6.56 µM, 42 µM, not below 70 µM and 1.14 µM.
The like results for SVKYYGRST were, in that order, 25.9 µM, 6.79 µM, 19.5 µM, 30.7 µM and 1.16 µM.
In the case of TAGNKVDVDI, the IC50 worked out at 40.2 µM in [1] (setting [11]); 11 µM in test [2] (setting [11]); 38.1 µM in [3] (setting [11]); 9.83 µM in test [4] (setting [11]); 3.5 µM in test [5] (setting [11]).
Consider TLNRNQPAA, for which the IC50 is 15.2 µM in [1] (setting [13]); 11.4 µM in test [2] (setting [13]); not below 70 µM in test [3] (setting [13]); not below 70 µM in test [4] (setting [13]); 0.583 µM in [5] (setting [13]).
In the case of TLNTMTKDA, the 50% inhibitory concentration (IC50) in test [1] (setting [13]) is 10.2 µM; in test [2] (setting [13]), 14.7 µM; in [3] (setting [13]), not below 70 µM; in [4] (setting [13]), not below 70 µM; in test [5] (setting [13]), 0.581 µM.
On to VIRNEVNDT, for which the IC50 in test [1] (setting [11]) is not below 70 µM; in test [2] (setting [11]), 19.9 µM; in test [3] (setting [11]) it was not below 70 µM; in test [4] (setting [11]), 28.3 µM; in test [5] (setting [11]), 0.82 µM.
In the case of VTKRDESSI, the IC50 in [1] (setting [11]) was not below 70 µM; in test [2] (setting [11]) it was 8.05 µM; in [3] (setting [11]), 38.1 µM; in test [4] (setting [11]), 8.1 µM; in test [5] (setting [11]), 2.14 µM.
The like results for WIKNLETYT were, in that order, 49.5 µM, 18.3 µM, 8.2 µM, not below 70 µM and 0.637 µM.

Values taken from the Immune Epitope Database (IEDB).
